Read-outs that look alike come from different tables or passages of the source.
Assays:
R recombinase [1] = settings: in vitro resolution between RS sites, recombinants
R recombinase [2] = test: cell_activity; settings: in vivo resolution after 4 h in LB+IPTG (3% after 1 h)

RS site
activity (R recombinase [1]): 30% | activity (R recombinase [2]): 15%

Source: patent publication US20040203016
